Source: paper doi:10.1101/133777 (bioRxiv, 2017)

Target: 3HA-3FLAG-SPAK (mouse, UniProt Q9Z1W9 1-556)
Experiment: pull-down

B1: BioEase-FBXL5 (natural protein)
chain: MAPFPEEVDVFTAPHWRMKQLVGLYCDKLSKTNFSNNNDFRALLQSLYATFKEFKMHEQIENEYIIGLLQQRSQTIYNVHSDNKLSEMLSLFEKGLKNVKNEYEQLNYAKQLKERLEAFTRDFLPHMKEEEEVFQPMLMEYFTYEELKDIKKKVIAQHCSQKDTAELLRGLSLWNHAEERQKFFKYSVDEKSDKEAEVSEHSTGITHLPPEVMLSIFSYLNPQELCRCSQVSMKWSQLTKTGSLWKHLYPVHWARGDWYSGPATELDTEPDDEWVKNRKDESRAFHEWDEDADIDESEESAEESIAISIAQMEKRLLHGLIHNVLPYVGTSVKTLVLAYSSAVSSKMVRQILELCPNLEHLDLTQTDISDSAFDSWSWLGCCQSLRHLDLSGCEKITDVALEKISRALGILTSHQSGFLKTSTSKITSTAWKNKDITMQSTKQYACLHDLTNKGIGEEIDNEHPWTKPVSSENFTSPYVWMLDAEDLADIEDTVEWRHRNVESLCVMETASNFSCSTSGCFSKDIVGLRTSVCWQQHCASPAFAYCGHSFCCTGTALRTMSSLPESSAMCRKAARTRLPRGKDLIYFGSEKSDQETGRVLLFLSLSGCYQITDHGLRVLTLGGGLPYLEHLNLSGCLTITGAGLQDLVSACPSLNDEYFYYCDNINGPHADTASGCQNLQCGFRACCRSGE
modifications: biotin (biotinylated FBXL5, BioEase tag)
  binding result: binds
